From article PMC13044988, “Vaspin identified as a DNA‐binding serpin with functional consequences for protease inhibition”
Numbering of substitutions follows the chain as printed.

B1: 60 base ssDNA (ssDNA)
DNA: GACGGATCGGGAGATCTCCCGATCCCCTATGGTGCACTCTCAGTACAATCTGCTCTGATG
B2: 120 base ssDNA (ssDNA)
DNA: GACGGATCGGGAGATCTCCCGATCCCCTATGGTGCACTCTCAGTACAATCTGCTCTGATGCCGCATAGTTAAGCCAGTATCTGCTCCCTGCTTGTGTGTTGGAGGTCGCTGAGTAGTGCG

How the values were obtained:
[1] = molecular target: T1, NHB vaspin (nonheparin-binding) (Homo sapiens, UniProt Q8IW75 21-414, K131A;K188A;R211A;K359A;R363A); assay: DRaCALA; Buffer 2; DRaCALA: Buffer 2, 20 mM Tris/HCl pH 7.8, 15 mM NaCl, 50 nM labeled ssDNA, 10 min at 20 C; screening also in Buffer 1 (20 mM Tris/HCl pH 7.8, 150 mM NaCl) and Buffer 3 (20 mM Tris/HCl pH 7.8, 15 mM KCl); conditions: protein: recombinant; label: 5'-32P
T1 sequence: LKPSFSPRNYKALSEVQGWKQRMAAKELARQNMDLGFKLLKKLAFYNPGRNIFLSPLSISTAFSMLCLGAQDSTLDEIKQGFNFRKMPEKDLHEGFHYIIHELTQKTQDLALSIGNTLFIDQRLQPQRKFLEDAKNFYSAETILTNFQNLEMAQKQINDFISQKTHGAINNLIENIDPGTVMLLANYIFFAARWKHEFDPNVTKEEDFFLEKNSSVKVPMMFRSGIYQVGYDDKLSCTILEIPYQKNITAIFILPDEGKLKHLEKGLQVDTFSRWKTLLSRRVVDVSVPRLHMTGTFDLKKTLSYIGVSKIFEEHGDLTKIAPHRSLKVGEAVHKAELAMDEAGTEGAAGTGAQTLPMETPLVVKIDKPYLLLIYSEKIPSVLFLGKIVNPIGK

vaspin WT = molecular target: T2, vaspin WT (Homo sapiens, UniProt Q8IW75 21-414); assay: as above; conditions: protein: recombinant; label: 5'-32P
T2 sequence: T1 sequence with A111K, A168K, A191R, A339K, A343R

KLK7 (kallikrein 7) = KLK7 (kallikrein 7) (Homo sapiens, UniProt P49862 30-253); assay: as above; conditions: protein: recombinant; label: 5'-32P
Chain of KLK7 (kallikrein 7) (P49862 30-253): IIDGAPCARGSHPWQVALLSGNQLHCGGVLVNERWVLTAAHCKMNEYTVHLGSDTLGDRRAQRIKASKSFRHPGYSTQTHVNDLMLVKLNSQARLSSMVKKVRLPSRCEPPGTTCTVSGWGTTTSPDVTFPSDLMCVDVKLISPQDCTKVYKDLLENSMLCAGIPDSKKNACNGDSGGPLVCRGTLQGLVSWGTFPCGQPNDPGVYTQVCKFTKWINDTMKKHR

antichymotrypsin (ACT) = molecular target: T3, antichymotrypsin (ACT) (Homo sapiens, UniProt P01011 24-423); assay: DRaCALA; Buffer 1 (150 mM NaCl), 1 uM protein; DRaCALA: Buffer 2, 20 mM Tris/HCl pH 7.8, 15 mM NaCl, 50 nM labeled ssDNA, 10 min at 20 C; screening also in Buffer 1 (20 mM Tris/HCl pH 7.8, 150 mM NaCl) and Buffer 3 (20 mM Tris/HCl pH 7.8, 15 mM KCl); conditions: label: 5'-32P
T3 sequence: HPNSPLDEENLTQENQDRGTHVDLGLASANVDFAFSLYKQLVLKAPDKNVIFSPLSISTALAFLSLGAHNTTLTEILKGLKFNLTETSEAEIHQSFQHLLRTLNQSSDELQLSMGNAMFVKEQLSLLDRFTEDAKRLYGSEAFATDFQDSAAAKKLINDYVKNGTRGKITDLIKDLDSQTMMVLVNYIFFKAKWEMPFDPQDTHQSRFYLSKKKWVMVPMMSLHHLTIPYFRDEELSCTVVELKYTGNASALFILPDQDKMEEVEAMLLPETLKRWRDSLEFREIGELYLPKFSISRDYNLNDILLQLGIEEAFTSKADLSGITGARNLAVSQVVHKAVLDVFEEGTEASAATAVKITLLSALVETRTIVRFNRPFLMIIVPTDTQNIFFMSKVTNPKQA

Row | Binder | Kd [1] [nM] | Kd (vaspin WT) [nM] | Kd (KLK7 (kallikrein 7)) [nM] | binding result (antichymotrypsin (ACT))
1 | GACGGATCGGGAGATCTCCC (ssDNA) [20 base ssDNA] | 269 | 59 | 2070 | –
2 | B1 | 188 | 117 | 815 | no binding
3 | B2 | 178 | 128 | 1070 | –
